This is an account of results in publication PMC7251095.

The term stoichiometry N denotes the number of molecules, sites or subunits per partner or assembly.

For this assay, the target named is E. coli F1Fo ATP synthase subunit b (cysteine free) (E. coli) (UniProt P0ABA0). Briefly: cryo-EM structure; detergent-solubilized (digitonin) cysteine free E. coli F1Fo ATP synthase at 11 μM with 10 mM MgADP, 22 °C for 30 s before freezing; 300 kV; nine sub-states and a Fo focused map of Sub-state 3A.

“E. coli F1Fo ATP synthase subunit b (cysteine free) (from UniProt P0ABA0 1-156) (natural protein)”: the stoichiometry N turned out to be 2.
